Measurements from publication PMC10917276, “A tick saliva serpin, IxsS17 inhibits host innate immune system proteases and enhances host colonization by Lyme disease agent” (PLOS Pathogens, 2024).

B1: blood clotting factor Xa (enzyme)
chain 1: ANSFLEEMKKGHLERECMEETCSYEEAREVFEDSDKTNEFWNKYKDGDQCETSPCQNQGKCKDGLGEYTCTCLEGFEGKNCELFTRKLCSLDNGDCDQFCHEEQNSVVCSCARGYTLADNGKACIPTGPYPCGKQTLER
chain 2: IVGGQECKDGECPWQALLINEENEGFCGGTILSEFYILTAAHCLYQAKRFKVRVGDRNTEQEEGGEAVHEVEVVIKHNRFTKETYDFDIAVLRLKTPITFRMNVAPACLPERDWAESTLMTQKTGIVSGFGRTHEKGRQSTRLKMLEVPYVDRNSCKLSSSFIITQNMFCAGYDTKQEDACQGDSGGPHVTRFKDTYFVTGIVSWGEGCARKGKYGIYTKVTAFLKWIDRSMKTRGLPKAKSHAPEVITSSPLK
B2: C-terminal hexa-histidine tagged recombinant Ixodes scapularis serpin 17 (rIxsS17) (natural protein)
chain: DDISQDKWKLARANNYLGLNLLKQLPSNDKTNVFFSPFSVSTAMGMAYAGARGDTLEQLTLNFGYAADELNEGKVLALFKEQLQSTNDLPHDYTLNIANAAVAQEGYGILPEYTDALTSSFGAEYIEADFQKRGQEAIQKINAWVSNRTHGKVQSLFDEPPDFSTRLILLNAIYYKGTWLYEFDKTKTKPRSFYNGGVEKVQVPMMRLKSTLNHTYNAILNADLVDLPYVGNDFSMTIILPREKTGLASLKSVLTSQTLNLALQNMYPKDMKLKLPKFKLDTKYTLKPTLEAMGITKIFSADADLSGISGSRNLYVSDVLHKAVLEVNEEGSEAAAVTGFVIQLRTAAFVTPPPLPKVYVDHPFIFLIRNSRTNTIMFLGEINAL
modifications: glycosylated (sites not given)
notes: Ixodes scapularis tick saliva serpin 17 (IxsS17), GenBank EEC18973.1; Codon-optimised synthetic gene in pPICZαA; also called C-terminal-His-rIxsS17; C-terminal His-tagged rIsS17; source: Pichia pastoris X33, secreted into medium, purified (ammonium sulfate, Hi-Trap Chelating HP); not shown: His6, C-terminal, kept
B3: rat skin trypsin IV (enzyme, UniProt P12788 24-247, looked up)
chain: IVGGYTCPKHLVPYQVSLHDGISHQCGGSLISDQWVLSAAHCYKRKLQVRLGEHNIHVLEGGEQFIDAEKIIRHPEYNKDTLDNDIMLIKLKSPAVLNSQVSTVSLPRSCASTDAQCLVSGWGNTVSIGGKYPALLQCLEAPVLSASSCKKSYPGQITSNMFCLGFLEGGKDSCDGDSGGPVVCNGEIQGIVSWGSVCAMRGKPGVYTKVCNYLSWIQETMANN
notes: rat trypsin IV, in house expressed; construct not described; also called rat trypsin IV; source: in house expressed

Legend:
[1] = target: bovine pancreatic trypsin (bovine)
[2] = target: bovine pancreatic trypsin (bovine); test: discontinuous inhibition kinetics from residual protease activity (second-order rate constant); rIxsS17 50-1000 nM with bovine trypsin 14.6 nM, trypsin IV 12.5 nM or fXa 13.9 nM for 0-15 min at 37°C; kobs from semi-log plots, ka from the slope of kobs against rIxsS17 concentration
[3] = target: bovine pancreatic trypsin (bovine); test: stoichiometry of inhibition from residual protease activity (substrate hydrolysis); molar ratios of His-tagged rIxsS17 to protease 0, 2.5, 5, 10, 20, 25, 50; 15 min at 37°C; bovine trypsin 1.5 nM, rat trypsin IV 2.0 nM or factor Xa 13.9 nM; linear regression extrapolated to zero activity
[4] = target: B2; test: discontinuous inhibition kinetics from residual protease activity (second-order rate constant); rIxsS17 50-1000 nM with bovine trypsin 14.6 nM, trypsin IV 12.5 nM or fXa 13.9 nM for 0-15 min at 37°C; kobs from semi-log plots, ka from the slope of kobs against rIxsS17 concentration; conditions: both partners purified
blood clotting factor Xa = target: B1; test: stoichiometry of inhibition from residual protease activity (substrate hydrolysis); molar ratios of His-tagged rIxsS17 to protease 0, 2.5, 5, 10, 20, 25, 50; 15 min at 37°C; bovine trypsin 1.5 nM, rat trypsin IV 2.0 nM or factor Xa 13.9 nM; linear regression extrapolated to zero activity; conditions: both partners purified
rat skin trypsin IV = target: B3; test: as above; conditions: both partners purified

“N-terminal hexa-histidine tagged rIxsS17 with TEV site (natural protein)” gave a decrease in the inhibitory activity against trypsin of the N-terminal hexa-His construct (substrate hydrolysis assay) [1] of 8.6%.

Molecule “C-terminal hexa-histidine tagged recombinant Ixodes scapularis serpin 17 (rIxsS17) (from UniProt A0ACM8DKW3 71-455) (natural protein)” has a kon [2] of 2700 M⁻¹ s⁻¹ and a stoichiometry of inhibition (SI) [3] of 12.9.

For B1, the kon [4] was 540 M⁻¹ s⁻¹.

With B2 the “stoichiometry of inhibition (SI)” value (blood clotting factor Xa) was 68 and the “stoichiometry of inhibition (SI)” value (rat skin trypsin IV) was 10.5.

B3 gave a kon [4] of 3900 M⁻¹ s⁻¹.
